In patent US20190185537A1 (AstraZeneca / MedImmune, published 2019):
Read-outs that look alike come from different tables or passages of the source. Numbered stars: 1 amine (or outer) side, 2 acyl side, 3 side chain; on linkers, the order of the positions; unused ones are H or OH. Side chains are listed from the residue outwards. Ends that are not written are not given here. * marks the point of attachment. γGlu = O=C(O)[C@H](CCC(=O)[*:2])N[*:1]; Palmitoyl = CCCCCCCCCCCCCCCC(=O)*

T1: human glucose-dependent insulinotropic peptide (gastric inhibitory polypeptide) receptor (human) (UniProt P48546)
T1 sequence (looked up): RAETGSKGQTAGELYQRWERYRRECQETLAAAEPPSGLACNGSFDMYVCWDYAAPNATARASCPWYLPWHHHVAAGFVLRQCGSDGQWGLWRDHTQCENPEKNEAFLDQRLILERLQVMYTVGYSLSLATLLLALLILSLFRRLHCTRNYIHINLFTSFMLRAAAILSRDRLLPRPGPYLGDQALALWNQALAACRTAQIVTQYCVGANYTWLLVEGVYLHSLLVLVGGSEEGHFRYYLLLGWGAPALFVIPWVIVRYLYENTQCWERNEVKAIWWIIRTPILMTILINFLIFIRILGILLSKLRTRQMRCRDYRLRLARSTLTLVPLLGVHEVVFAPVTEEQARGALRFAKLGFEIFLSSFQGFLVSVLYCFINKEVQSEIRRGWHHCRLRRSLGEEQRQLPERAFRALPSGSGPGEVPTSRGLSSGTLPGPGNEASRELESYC

T2: human glucose-dependent insulinotropic peptide (gastric inhibitory polypeptide) receptor (human, UniProt P48546 22-466)
T2 sequence (looked up): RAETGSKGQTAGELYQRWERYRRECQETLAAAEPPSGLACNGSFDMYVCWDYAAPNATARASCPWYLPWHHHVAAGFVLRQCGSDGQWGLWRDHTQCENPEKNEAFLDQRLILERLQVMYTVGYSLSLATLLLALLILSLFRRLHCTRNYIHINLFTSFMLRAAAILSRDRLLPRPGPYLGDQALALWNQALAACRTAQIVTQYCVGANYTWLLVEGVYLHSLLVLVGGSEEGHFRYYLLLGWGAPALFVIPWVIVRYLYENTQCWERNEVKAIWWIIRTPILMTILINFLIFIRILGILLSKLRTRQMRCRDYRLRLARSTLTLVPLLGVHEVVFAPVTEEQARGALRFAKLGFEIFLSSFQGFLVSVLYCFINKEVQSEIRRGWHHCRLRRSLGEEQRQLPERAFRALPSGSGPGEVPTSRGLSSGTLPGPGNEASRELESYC

T3: mouse GLP-1 receptor (mouse, UniProt O35659 22-463)
T3 sequence (looked up): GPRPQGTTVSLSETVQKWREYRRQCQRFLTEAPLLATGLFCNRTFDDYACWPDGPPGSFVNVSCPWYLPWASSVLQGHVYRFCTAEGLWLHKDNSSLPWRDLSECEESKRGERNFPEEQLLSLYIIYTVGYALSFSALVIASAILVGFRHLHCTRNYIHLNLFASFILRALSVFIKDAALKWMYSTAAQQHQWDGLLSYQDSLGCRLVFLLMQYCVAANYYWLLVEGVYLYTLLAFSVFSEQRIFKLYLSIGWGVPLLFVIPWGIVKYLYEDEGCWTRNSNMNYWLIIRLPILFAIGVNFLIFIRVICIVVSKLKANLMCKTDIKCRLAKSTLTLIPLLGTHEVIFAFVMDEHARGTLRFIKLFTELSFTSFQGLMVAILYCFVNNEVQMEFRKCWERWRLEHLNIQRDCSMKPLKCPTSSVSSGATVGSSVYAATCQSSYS


What was measured:
Assay in all cases: cell-based or functional assay
human glucagon receptor [1] = target: T4, human glucagon receptor (human, UniProt P47871 26-477)
human GLP-1 receptor [2] = target: T5, human GLP-1 receptor (human, UniProt P43220 24-463)
Target sequence in this assay (P43220 24-463): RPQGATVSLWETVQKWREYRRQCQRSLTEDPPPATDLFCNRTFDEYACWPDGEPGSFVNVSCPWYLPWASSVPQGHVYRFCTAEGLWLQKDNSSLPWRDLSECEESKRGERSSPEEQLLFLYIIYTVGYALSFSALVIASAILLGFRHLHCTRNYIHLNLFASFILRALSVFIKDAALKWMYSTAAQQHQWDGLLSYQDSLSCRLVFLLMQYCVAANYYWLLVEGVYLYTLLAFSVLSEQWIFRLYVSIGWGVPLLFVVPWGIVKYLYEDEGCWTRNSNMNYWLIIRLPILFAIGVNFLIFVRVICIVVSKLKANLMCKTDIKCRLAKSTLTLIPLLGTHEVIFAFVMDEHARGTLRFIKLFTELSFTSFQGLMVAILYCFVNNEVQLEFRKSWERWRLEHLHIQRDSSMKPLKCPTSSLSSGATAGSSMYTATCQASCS

[3] = target: T1, human glucose-dependent insulinotropic peptide (gastric inhibitory polypeptide) receptor (human)
human glucagon receptor [4] = target: T4, human glucagon receptor; remark: listed apart in the source
human GLP-1 receptor [5] = target: T5, human GLP-1 receptor; remark: listed apart in the source
[6] = target: T2, human glucose-dependent insulinotropic …
human GLP-1 receptor [7] = target: T5, human GLP-1 receptor; remark: listed apart in the source
mouse GLP-1 receptor = target: T3, mouse GLP-1 receptor
mouse glucagon receptor = mouse glucagon receptor (mouse, UniProt Q61606 27-485)
rat glucagon receptor = rat glucagon receptor (rat, UniProt P30082 27-485)
rat glucagon receptor, sequence (P30082 27-485): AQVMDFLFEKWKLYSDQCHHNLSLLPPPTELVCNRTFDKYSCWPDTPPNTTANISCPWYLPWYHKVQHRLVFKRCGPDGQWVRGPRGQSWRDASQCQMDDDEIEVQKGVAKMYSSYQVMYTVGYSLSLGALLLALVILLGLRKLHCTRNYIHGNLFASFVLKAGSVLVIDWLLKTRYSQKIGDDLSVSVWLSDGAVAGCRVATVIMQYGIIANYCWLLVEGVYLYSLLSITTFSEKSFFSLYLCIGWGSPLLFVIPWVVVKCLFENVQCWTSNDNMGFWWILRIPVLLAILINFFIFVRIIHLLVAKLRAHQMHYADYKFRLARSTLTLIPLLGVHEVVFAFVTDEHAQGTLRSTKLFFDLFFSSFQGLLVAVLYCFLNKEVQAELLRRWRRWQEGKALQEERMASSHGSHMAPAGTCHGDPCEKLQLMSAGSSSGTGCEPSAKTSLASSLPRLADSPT

T4 sequence (P47871 26-477): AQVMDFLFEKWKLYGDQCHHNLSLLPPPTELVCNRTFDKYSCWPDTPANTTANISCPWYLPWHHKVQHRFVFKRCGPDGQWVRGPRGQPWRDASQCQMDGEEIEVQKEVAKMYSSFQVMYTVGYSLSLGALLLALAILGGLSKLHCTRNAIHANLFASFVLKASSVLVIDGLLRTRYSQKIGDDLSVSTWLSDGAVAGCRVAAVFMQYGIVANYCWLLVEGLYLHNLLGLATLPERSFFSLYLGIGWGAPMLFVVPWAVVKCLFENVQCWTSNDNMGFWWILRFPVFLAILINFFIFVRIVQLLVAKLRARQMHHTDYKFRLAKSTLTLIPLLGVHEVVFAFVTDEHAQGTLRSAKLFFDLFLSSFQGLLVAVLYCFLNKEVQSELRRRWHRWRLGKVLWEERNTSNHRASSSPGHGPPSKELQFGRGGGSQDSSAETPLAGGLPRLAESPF
mouse glucagon receptor, sequence (Q61606 27-485): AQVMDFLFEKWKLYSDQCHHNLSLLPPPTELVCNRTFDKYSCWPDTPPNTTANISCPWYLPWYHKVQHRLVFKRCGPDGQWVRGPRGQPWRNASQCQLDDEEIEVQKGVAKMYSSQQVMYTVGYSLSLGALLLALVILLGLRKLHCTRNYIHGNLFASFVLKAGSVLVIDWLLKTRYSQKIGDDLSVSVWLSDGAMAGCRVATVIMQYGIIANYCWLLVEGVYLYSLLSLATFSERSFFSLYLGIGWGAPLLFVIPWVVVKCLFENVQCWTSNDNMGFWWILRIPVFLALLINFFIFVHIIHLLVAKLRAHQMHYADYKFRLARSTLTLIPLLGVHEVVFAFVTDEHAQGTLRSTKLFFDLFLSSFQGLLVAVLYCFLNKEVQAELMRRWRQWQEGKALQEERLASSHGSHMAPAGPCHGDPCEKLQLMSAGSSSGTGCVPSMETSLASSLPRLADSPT

Binder	cAMP EC50 (assay 1) (human glucagon receptor [1]) [nM]	cAMP EC50 (assay 1) (human GLP-1 receptor [2]) [nM]	cAMP EC50 (assay 1) [3] [nM]	cAMP EC50 (assay 1) (human glucagon receptor [4]) [nM]	cAMP EC50 (assay 1) (human GLP-1 receptor [5]) [nM]	cAMP EC50 (assay 1) [6] [nM]	cAMP EC50 (assay 2, 4.4% human serum albumin) (human GLP-1 receptor [7]) [nM]	cAMP EC50 (assay 2, 3.2% mouse serum albumin) (mouse GLP-1 receptor) [nM]	cAMP EC50 (assay 2, 3.2% mouse serum albumin) (mouse glucagon receptor) [nM]	cAMP EC50 (assay 2, 3.2% rat serum albumin) (rat glucagon receptor) [nM]
HSQGTFTSDYSKYK([γGlu-Palmitoyl])DSRSARDFVEWLVAGG-NH2 (N-terminus assumed; SMILES CCCCCCCCCCCCCCCC(=O)N[C@@H](CCC(=O)NCCCC[C@H](NC(=O)[C@H](Cc1ccc(O)cc1)NC(=O)[C@H](CCCCN)NC(=O)[C@H](CO)NC(=O)[C@H](Cc1ccc(O)cc1)NC(=O)[C@H](CC(=O)O)NC(=O)[C@H](CO)NC(=O)[C@@H](NC(=O)[C@H](Cc1ccccc1)NC(=O)[C@@H](NC(=O)CNC(=O)[C@H](CCC(N)=O)NC(=O)[C@H](CO)NC(=O)[C@@H](N)Cc1c[nH]cn1)[C@@H](C)O)[C@@H](C)O)C(=O)N[C@@H](CC(=O)O)C(=O)N[C@@H](CO)C(=O)N[C@@H](CCCNC(=N)N)C(=O)N[C@@H](CO)C(=O)N[C@@H](C)C(=O)N[C@@H](CCCNC(=N)N)C(=O)N[C@@H](CC(=O)O)C(=O)N[C@@H](Cc1ccccc1)C(=O)N[C@H](C(=O)N[C@@H](CCC(=O)O)C(=O)N[C@@H](Cc1c[nH]c2ccccc12)C(=O)N[C@@H](CC(C)C)C(=O)N[C@H](C(=O)N[C@@H](C)C(=O)NCC(=O)NCC(N)=O)C(C)C)C(C)C)C(=O)O) [g803]	0.0108	0.0296	32.9	–	–	–	–	–	–	–
HGEGTFTSDYSKYK([γGlu-Palmitoyl])DSRRAQDFVQWLVAGG-NH2 (N-terminus assumed; SMILES CCCCCCCCCCCCCCCC(=O)N[C@@H](CCC(=O)NCCCC[C@H](NC(=O)[C@H](Cc1ccc(O)cc1)NC(=O)[C@H](CCCCN)NC(=O)[C@H](CO)NC(=O)[C@H](Cc1ccc(O)cc1)NC(=O)[C@H](CC(=O)O)NC(=O)[C@H](CO)NC(=O)[C@@H](NC(=O)[C@H](Cc1ccccc1)NC(=O)[C@@H](NC(=O)CNC(=O)[C@H](CCC(=O)O)NC(=O)CNC(=O)[C@@H](N)Cc1c[nH]cn1)[C@@H](C)O)[C@@H](C)O)C(=O)N[C@@H](CC(=O)O)C(=O)N[C@@H](CO)C(=O)N[C@@H](CCCNC(=N)N)C(=O)N[C@@H](CCCNC(=N)N)C(=O)N[C@@H](C)C(=O)N[C@@H](CCC(N)=O)C(=O)N[C@@H](CC(=O)O)C(=O)N[C@@H](Cc1ccccc1)C(=O)N[C@H](C(=O)N[C@@H](CCC(N)=O)C(=O)N[C@@H](Cc1c[nH]c2ccccc12)C(=O)N[C@@H](CC(C)C)C(=O)N[C@H](C(=O)N[C@@H](C)C(=O)NCC(=O)NCC(N)=O)C(C)C)C(C)C)C(=O)O) [g733]	62	0.0231	817	–	–	–	–	–	–	–
HSQGTFTSDYSKYK([γGlu-Palmitoyl])DSERARDFVAWLVAGG-NH2 (N-terminus assumed; SMILES CCCCCCCCCCCCCCCC(=O)N[C@@H](CCC(=O)NCCCC[C@H](NC(=O)[C@H](Cc1ccc(O)cc1)NC(=O)[C@H](CCCCN)NC(=O)[C@H](CO)NC(=O)[C@H](Cc1ccc(O)cc1)NC(=O)[C@H](CC(=O)O)NC(=O)[C@H](CO)NC(=O)[C@@H](NC(=O)[C@H](Cc1ccccc1)NC(=O)[C@@H](NC(=O)CNC(=O)[C@H](CCC(N)=O)NC(=O)[C@H](CO)NC(=O)[C@@H](N)Cc1c[nH]cn1)[C@@H](C)O)[C@@H](C)O)C(=O)N[C@@H](CC(=O)O)C(=O)N[C@@H](CO)C(=O)N[C@@H](CCC(=O)O)C(=O)N[C@@H](CCCNC(=N)N)C(=O)N[C@@H](C)C(=O)N[C@@H](CCCNC(=N)N)C(=O)N[C@@H](CC(=O)O)C(=O)N[C@@H](Cc1ccccc1)C(=O)N[C@H](C(=O)N[C@@H](C)C(=O)N[C@@H](Cc1c[nH]c2ccccc12)C(=O)N[C@@H](CC(C)C)C(=O)N[C@H](C(=O)N[C@@H](C)C(=O)NCC(=O)NCC(N)=O)C(C)C)C(C)C)C(=O)O) [g777]	0.00124	0.0274	4.53	–	–	–	–	–	–	–
HSQGTFTSDYSEYK([γGlu-Palmitoyl])DSERARDFVAWLVAGG-NH2 (N-terminus assumed; SMILES CCCCCCCCCCCCCCCC(=O)N[C@@H](CCC(=O)NCCCC[C@H](NC(=O)[C@H](Cc1ccc(O)cc1)NC(=O)[C@H](CCC(=O)O)NC(=O)[C@H](CO)NC(=O)[C@H](Cc1ccc(O)cc1)NC(=O)[C@H](CC(=O)O)NC(=O)[C@H](CO)NC(=O)[C@@H](NC(=O)[C@H](Cc1ccccc1)NC(=O)[C@@H](NC(=O)CNC(=O)[C@H](CCC(N)=O)NC(=O)[C@H](CO)NC(=O)[C@@H](N)Cc1c[nH]cn1)[C@@H](C)O)[C@@H](C)O)C(=O)N[C@@H](CC(=O)O)C(=O)N[C@@H](CO)C(=O)N[C@@H](CCC(=O)O)C(=O)N[C@@H](CCCNC(=N)N)C(=O)N[C@@H](C)C(=O)N[C@@H](CCCNC(=N)N)C(=O)N[C@@H](CC(=O)O)C(=O)N[C@@H](Cc1ccccc1)C(=O)N[C@H](C(=O)N[C@@H](C)C(=O)N[C@@H](Cc1c[nH]c2ccccc12)C(=O)N[C@@H](CC(C)C)C(=O)N[C@H](C(=O)N[C@@H](C)C(=O)NCC(=O)NCC(N)=O)C(C)C)C(C)C)C(=O)O) [g846]	0.0341	0.0438	11.8	–	–	–	–	–	–	–
HGQGTFTSDYSKYK([γGlu-Palmitoyl])DSERARDFVAWLVAGG-NH2 (N-terminus assumed; SMILES CCCCCCCCCCCCCCCC(=O)N[C@@H](CCC(=O)NCCCC[C@H](NC(=O)[C@H](Cc1ccc(O)cc1)NC(=O)[C@H](CCCCN)NC(=O)[C@H](CO)NC(=O)[C@H](Cc1ccc(O)cc1)NC(=O)[C@H](CC(=O)O)NC(=O)[C@H](CO)NC(=O)[C@@H](NC(=O)[C@H](Cc1ccccc1)NC(=O)[C@@H](NC(=O)CNC(=O)[C@H](CCC(N)=O)NC(=O)CNC(=O)[C@@H](N)Cc1c[nH]cn1)[C@@H](C)O)[C@@H](C)O)C(=O)N[C@@H](CC(=O)O)C(=O)N[C@@H](CO)C(=O)N[C@@H](CCC(=O)O)C(=O)N[C@@H](CCCNC(=N)N)C(=O)N[C@@H](C)C(=O)N[C@@H](CCCNC(=N)N)C(=O)N[C@@H](CC(=O)O)C(=O)N[C@@H](Cc1ccccc1)C(=O)N[C@H](C(=O)N[C@@H](C)C(=O)N[C@@H](Cc1c[nH]c2ccccc12)C(=O)N[C@@H](CC(C)C)C(=O)N[C@H](C(=O)N[C@@H](C)C(=O)NCC(=O)NCC(N)=O)C(C)C)C(C)C)C(=O)O) [g732]	0.0396	0.0232	29.4	–	–	–	–	–	–	–
HSQGTFTSDKSSYLDSRSARDFVAWLEAGG (X10 = K(gE-palm); C-terminal amide) [G865]	–	–	–	0.0126	0.0083	22	0.15	0.096	1.1	87.1
HSQGTFTSDYSEYK([γGlu-Palmitoyl])DSRRAQDFVQWLVAGG-NH2 (N-terminus assumed; SMILES CCCCCCCCCCCCCCCC(=O)N[C@@H](CCC(=O)NCCCC[C@H](NC(=O)[C@H](Cc1ccc(O)cc1)NC(=O)[C@H](CCC(=O)O)NC(=O)[C@H](CO)NC(=O)[C@H](Cc1ccc(O)cc1)NC(=O)[C@H](CC(=O)O)NC(=O)[C@H](CO)NC(=O)[C@@H](NC(=O)[C@H](Cc1ccccc1)NC(=O)[C@@H](NC(=O)CNC(=O)[C@H](CCC(N)=O)NC(=O)[C@H](CO)NC(=O)[C@@H](N)Cc1c[nH]cn1)[C@@H](C)O)[C@@H](C)O)C(=O)N[C@@H](CC(=O)O)C(=O)N[C@@H](CO)C(=O)N[C@@H](CCCNC(=N)N)C(=O)N[C@@H](CCCNC(=N)N)C(=O)N[C@@H](C)C(=O)N[C@@H](CCC(N)=O)C(=O)N[C@@H](CC(=O)O)C(=O)N[C@@H](Cc1ccccc1)C(=O)N[C@H](C(=O)N[C@@H](CCC(N)=O)C(=O)N[C@@H](Cc1c[nH]c2ccccc12)C(=O)N[C@@H](CC(C)C)C(=O)N[C@H](C(=O)N[C@@H](C)C(=O)NCC(=O)NCC(N)=O)C(C)C)C(C)C)C(=O)O) [g731]	0.0277	0.0422	40.7	–	–	–	–	–	–	–
